# According to PMC7319049 (Nature, 2020):
# B1: Swi1 (natural protein)
# chain: MDFFNLNNNNNNNNTTTTTTTTNNNNTNNNNTNNNNNPANNTNNNNSTGHSSNTNNNTNNNNTNTGASGVDDFQNFFDPKPFDQNLDSNNNNSNSNNNDNNNSNTVASSTNFTSPTAVVNNAAPANVTGGKAANFIQNQSPQFNSPYDSNNSNTNLNSLSPQAILAKNSIIDSSNLPLQAQQQLYGGNNNNNSTGIANDNVITPHFITNVQSISQNSSSSTPNTNSNSTPNANQQFLPFNNSASNNGNLTSNQLISNYAASNSMDRSSSASNEFVPNTSDNNNNSNNHNMRNNSNNKTSNNNNVTAVPAATPANTNNSTSNANTVFSERAAMFAALQQKQQQRFQALQQQQQQQQNQQQQNQQPQQQQQQQQNPKFLQSQRQQQQRSILQSLNPALQEKISTELNNKQYELFMKSLIENCKKRNMPLQSIPEIGNRKINLFYLYMLVQKFGGADQVTRTQQWSMVAQRLQISDYQQLESIYFRILLPYERHMISQEGIKETQAKRIFLQQFLQELLKKVQQQQQAAALANANNNINSASSAPTPAAPGASVPATAAPGTEAGIVPVSANTPKSLNSNININVNNNNIGQQQVKKPRKQRVKKKTKKELELERKEREDFQKRQQKLLEDQQRQQKLLLETKLRQQYEIELKKLPKVYKRSIVRNYKPLINRLKHYNGYDINYISKIGEKIDSNKPIFLFAPELGAINLHALSMSLQSKNLGEINTALNTLLVTSADSNLKISLVKYPELLDSLAILGMNLLSNLSQNVVPYHRNTSDYYYEDAGSNQYYVTQHDKMVDKIFEKVNNNATLTPNDSNDEKVTILVDSLTGNQLPTPTPTEMEPDLDTECFISMQSTSPAVKQWDLLPEPIRFLPNQFPLKIHRTPYLTSLKKIKDEIDDPFTKINTRGAEDPKVLINDQLSTISMILRNISFSDNNSRIMSRNFYLKRFISDLLWLVLIHPENFTCNRKILNFKKDLVIVLSNISHLLEIASSIDCLLILILVISFGQPKLNPMASSSSFGSESLTFNEFQLQWGKYQTFGVDILAKLFSLEKPNLNYFKSILLNKNTGNNLYDRNSNNNHKDKKLLRRLLNLYNDNNKNNNNRHNLLNDVVSFLFSAIPLQQVLSQSADPSLLIDQFSPVISQSLTSILVIVQKILPLSNEVFEISENNSDSNSNNNGNKDSSFNFNKNLPFVWLSSEENIGSGLLKLSEIILNINNSTSKNTLLQQQNYSKVLLPSINISCVQLIKCLVEKSICFENCLNNDPEILKKIASIPNLFPTDLEIFQLFTNPSVDIQIINQYQLLYNLKNDILTNLE
# What was measured:
# Snf2 = Snf2 (S. cerevisiae, UniProt P22082 1-1703); experiment: cryo-EM structure
# Swi1 = molecular target: B1; experiment: cryo-EM structure
# Sequence of Snf2 (P22082 whole entry): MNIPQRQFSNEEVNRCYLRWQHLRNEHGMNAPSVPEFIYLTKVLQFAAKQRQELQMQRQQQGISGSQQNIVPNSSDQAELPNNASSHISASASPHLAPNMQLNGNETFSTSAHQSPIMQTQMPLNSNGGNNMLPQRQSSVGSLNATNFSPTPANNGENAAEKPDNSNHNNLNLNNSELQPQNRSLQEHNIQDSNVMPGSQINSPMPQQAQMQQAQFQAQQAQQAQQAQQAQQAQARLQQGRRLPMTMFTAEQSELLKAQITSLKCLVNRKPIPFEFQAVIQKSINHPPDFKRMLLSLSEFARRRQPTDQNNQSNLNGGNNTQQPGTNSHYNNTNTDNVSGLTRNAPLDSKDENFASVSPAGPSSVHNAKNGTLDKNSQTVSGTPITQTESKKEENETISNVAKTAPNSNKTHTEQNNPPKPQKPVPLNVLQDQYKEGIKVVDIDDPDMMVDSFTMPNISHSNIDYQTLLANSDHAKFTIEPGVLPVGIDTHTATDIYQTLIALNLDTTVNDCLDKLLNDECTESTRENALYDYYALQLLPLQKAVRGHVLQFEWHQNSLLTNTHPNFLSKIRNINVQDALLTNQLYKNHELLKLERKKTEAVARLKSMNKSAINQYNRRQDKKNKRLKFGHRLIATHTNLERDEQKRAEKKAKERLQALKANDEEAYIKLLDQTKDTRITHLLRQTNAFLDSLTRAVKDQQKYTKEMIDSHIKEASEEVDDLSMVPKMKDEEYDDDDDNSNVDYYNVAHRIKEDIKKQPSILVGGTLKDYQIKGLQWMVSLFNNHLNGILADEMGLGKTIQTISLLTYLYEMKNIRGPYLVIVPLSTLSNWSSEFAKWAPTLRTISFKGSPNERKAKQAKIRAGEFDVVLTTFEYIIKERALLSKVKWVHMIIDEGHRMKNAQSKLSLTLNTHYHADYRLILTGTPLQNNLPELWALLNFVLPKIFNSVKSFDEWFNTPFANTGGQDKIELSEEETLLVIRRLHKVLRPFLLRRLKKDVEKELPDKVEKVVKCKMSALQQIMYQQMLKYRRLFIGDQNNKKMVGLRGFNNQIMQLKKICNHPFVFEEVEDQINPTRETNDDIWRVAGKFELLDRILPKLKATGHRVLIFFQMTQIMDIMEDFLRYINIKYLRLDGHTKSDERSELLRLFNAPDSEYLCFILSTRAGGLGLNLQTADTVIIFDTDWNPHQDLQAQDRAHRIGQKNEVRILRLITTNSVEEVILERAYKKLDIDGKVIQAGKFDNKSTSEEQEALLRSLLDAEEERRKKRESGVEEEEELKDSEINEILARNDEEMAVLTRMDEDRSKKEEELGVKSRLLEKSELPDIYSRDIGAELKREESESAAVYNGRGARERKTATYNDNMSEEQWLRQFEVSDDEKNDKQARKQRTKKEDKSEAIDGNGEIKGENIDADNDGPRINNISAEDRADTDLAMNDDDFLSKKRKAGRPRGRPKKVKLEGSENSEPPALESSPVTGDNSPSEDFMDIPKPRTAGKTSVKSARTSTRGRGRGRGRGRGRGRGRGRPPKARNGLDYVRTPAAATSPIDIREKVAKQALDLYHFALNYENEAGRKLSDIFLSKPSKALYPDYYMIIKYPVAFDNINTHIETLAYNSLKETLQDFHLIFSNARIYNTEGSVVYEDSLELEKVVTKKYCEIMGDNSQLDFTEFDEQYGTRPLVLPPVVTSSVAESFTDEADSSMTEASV
binding result (Snf2),binding result (Swi1),Binder
binds,–,Arp7 (natural protein) MTLNRKCVVIHNGSHRTVAGFSNVELPQCIIPSSYIKRTDEGGEAEFIFGTYNMIDAAAEKRNGDEVYTLVDSQGLPYNWDALEMQWRYLYDTQLKVSPEELPLVITMPATNGKPDMAILERYYELAFDKLNVPVFQIVIEPLAIALSMGKSSAFVIDIGASGCNVTPIIDGIVVKNAVVRSKFGGDFLDFQVHERLAPLIKEENDMENMADEQKRSTDVWYEASTWIQQFKSTMLQVSEKDLFELERYYKEQADIYAKQQEQLKQMDQQLQYTALTGSPNNPLVQKKNFLFKPLNKTLTLDLKECYQFAEYLFKPQLISDKFSPEDGLGPLMAKSVKKAGASINSMKANTSTNPNGLGTSHINTNVGDNNSTASSSNISPEQVYSLLLTNVIITGSTSLIEGMEQRIIKELSIRFPQYKLTTFANQVMMDRKIQGWLGALTMANLPSWSLGKWYSKEDYETLKRDRKQSQATNATN
binds,–,Rtt102 (natural protein) MDPQTLITKANKVSYYGNPTSKESWRYDWYQPSKVSSNVQQPQQQLGDMENNLEKYPFRYKTWLRNQEDEKNLQRESCEDILDLKEFDRRILKKSLMTSHTKGDTSKATGAPSANQGDEALSVDDIRGAVGNSEAIPGLSAGVNNDNTKESKDVKMN
binds,–,B1
binds,–,Arp9 (natural protein) MAPFRQDSILIIYPRSQTTLVQFGLNEETFTVPELEIPTQIYRTTRQDGSYTYHSTNKDNKAELIKPIQNGEIIDISAFTQFLRLIFVSILSDRANKNQDAFEAELSNIPLLLITHHSWSQSDLEIITQYVFESLEINNLIQLPASLAATYSMISLQNCCIIDVGTHHTDIIPIVDYAQLDHLVSSIPMGGQSINDSLKKLLPQWDDDQIESLKKSPIFEVLSDDAKKLSSFDFGNENEDEDEGTLNVAEIITSGRDTREVLEERERGQKVKNVKNSDLEFNTFWDEKGNEIKVGKQRFQGCNNLIKNISNRVGLTLDNIDDINKAKAVWENIIIVGGTTSISGFKEALLGQLLKDHLIIEPEEEKSKREEEAKSVLPAATKKKSKFMTNSTAFVPTIEYVQCPTVIKLAKYPDYFPEWKKSGYSEIIFLGAQIVSKQIFTHPKDTFYITREKYNMKGPAALWDVQF
–,binds,Snf5 (natural protein) MNNQPQGTNSVPNSIGNIFSNIGTPSFNMAQIPQQLYQSLTPQQLQMIQQRHQQLLRSRLQQQQQQQQQTSPPPQTHQSPPPPPQQSQPIANQSATSTPPPPPAPHNLHPQIGQVPLAPAPINLPPQIAQLPLATQQQVLNKLRQQAIAKNNPQVVNAITVAQQQVQRQIEQQKGQQTAQTQLEQQRQLLVQQQQQQQLRNQIQRQQQQQFRHHVQIQQQQQKQQQQQQQHQQQQQQQQQQQQQQQQQQQQQQQQQQQQQQQQQQQQQGQIPQSQQVPQVRSMSGQPPTNVQPTIGQLPQLPKLNLPKYQTIQYDPPETKLPYPTYWSDKKADTDTLLYEQIIQRDKINKYSLIRETNGYDPFSIYGFSNKEYISRLWHTLKYYQDLKNTRMKSITSTSQKIPSASIWGNGYSGYGNGITNTTTRVIPQVEVGNRKHYLEDKLKVYKQAMNETSEQLVPIRLEFDQDRDRFFLRDTLLWNKNDKLIKIEDFVDDMLRDYRFEDATREQHIDTICQSIQEQIQEFQGNPYIELNQDRLGGDDLRIRIKLDIVVGQNQLIDQFEWDISNSDNCPEEFAESMCQELELPGEFVTAIAHSIREQVHMYHKSLALLGYNFDGSAIEDDDIRSRMLPTITLDDVYRPAAESKIFTPNLLQISAAELERLDKDKDRDTRRKRRQGRSNRRGMLALSGTSASNTSMNGVHNTVAAGNASSLPPGEILLPDIADIPRTFRTPVPSTLMPGGVDVGPSVESYELRNTTTYKSRPDRPKPVSPPCYIIDHIPGHSLLLSIKLPGKVNTKEEFAAAPNDTSSGTNAMLPSPESLKTKLNSNIRAGVTIPSIPNPIANHTVTNSPNPTLQPVIPGGAASKSVPTPSLPIAPPVAPHDSEATLLTNSNNGSSNNNTQNT
